What was measured:
[1] = molecular target: T1, human IL-2Rβ/γ receptor heterodimer protein (Acrosystem, ILG-H5283) (human, UniProt P14784 27-239; P31785 23-262, limits assumed); assay: SPR Biacore 8K, fusion protein captured by anti-human IgG (Fc), human IL-2Rβ/γ heterodimer as analyte
T1 sequence (looked up) 1: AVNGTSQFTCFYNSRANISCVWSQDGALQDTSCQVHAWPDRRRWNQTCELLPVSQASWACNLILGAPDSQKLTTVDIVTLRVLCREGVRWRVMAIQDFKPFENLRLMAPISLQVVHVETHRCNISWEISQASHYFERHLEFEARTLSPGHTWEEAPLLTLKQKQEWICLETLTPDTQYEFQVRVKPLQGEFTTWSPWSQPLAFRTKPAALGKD
T1 sequence (looked up) 2: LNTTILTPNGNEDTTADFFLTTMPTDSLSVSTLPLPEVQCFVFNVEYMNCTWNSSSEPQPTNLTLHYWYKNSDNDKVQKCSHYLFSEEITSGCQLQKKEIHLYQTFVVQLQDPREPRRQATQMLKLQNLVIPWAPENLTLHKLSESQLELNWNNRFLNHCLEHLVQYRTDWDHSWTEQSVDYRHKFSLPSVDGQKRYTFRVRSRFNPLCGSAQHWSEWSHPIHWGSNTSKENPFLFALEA

[2] = molecular target: Human PD-1 antigen protein (Sino Biological, 10377-H08H) (human, UniProt Q15116 25-167); assay: SPR Biacore 8K, fusion protein captured by anti-human IgG (Fc), human PD-1 as analyte
Chain of Human PD-1 antigen protein (Sino Biological, 10377-H08H) (Q15116 25-167 limits assumed): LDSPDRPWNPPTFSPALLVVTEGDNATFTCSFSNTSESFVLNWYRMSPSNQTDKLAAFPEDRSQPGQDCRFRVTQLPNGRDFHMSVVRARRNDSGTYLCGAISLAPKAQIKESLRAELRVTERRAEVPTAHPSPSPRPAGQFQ

IL-2Rβ/γ on M07e cells = molecular target: T2, IL-2Rβ/γ on M07e cells (human, UniProt P14784 27-551; P31785 23-369); assay: cell-based or functional assay
T2 sequence (looked up) 1: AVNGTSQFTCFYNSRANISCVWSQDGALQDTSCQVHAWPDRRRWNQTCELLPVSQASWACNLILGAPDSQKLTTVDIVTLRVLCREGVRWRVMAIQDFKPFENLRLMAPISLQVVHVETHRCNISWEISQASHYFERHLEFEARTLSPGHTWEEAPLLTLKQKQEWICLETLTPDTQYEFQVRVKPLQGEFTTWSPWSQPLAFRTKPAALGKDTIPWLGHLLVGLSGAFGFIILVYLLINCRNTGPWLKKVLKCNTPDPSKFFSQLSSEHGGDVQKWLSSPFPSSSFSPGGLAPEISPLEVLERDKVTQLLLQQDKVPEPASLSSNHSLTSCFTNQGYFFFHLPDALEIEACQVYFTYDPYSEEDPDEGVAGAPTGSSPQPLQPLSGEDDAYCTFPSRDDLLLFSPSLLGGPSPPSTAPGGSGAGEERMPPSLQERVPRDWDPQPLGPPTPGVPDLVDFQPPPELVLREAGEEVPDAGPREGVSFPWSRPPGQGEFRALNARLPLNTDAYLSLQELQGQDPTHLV
T2 sequence (looked up) 2: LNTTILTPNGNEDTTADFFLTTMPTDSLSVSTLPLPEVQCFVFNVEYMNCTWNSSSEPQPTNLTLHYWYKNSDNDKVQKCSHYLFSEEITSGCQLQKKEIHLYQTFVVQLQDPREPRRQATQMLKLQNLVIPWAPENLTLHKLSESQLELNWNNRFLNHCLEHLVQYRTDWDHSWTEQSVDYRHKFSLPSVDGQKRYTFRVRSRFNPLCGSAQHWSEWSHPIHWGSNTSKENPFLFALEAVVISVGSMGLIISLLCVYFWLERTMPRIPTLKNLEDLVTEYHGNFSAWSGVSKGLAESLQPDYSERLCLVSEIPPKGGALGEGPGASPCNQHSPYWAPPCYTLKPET

human PD-1 [3] = molecular target: T3, human PD-1 (human, UniProt Q15116 25-288); assay: cell-based or functional assay
T3 sequence (Q15116 25-288 limits assumed): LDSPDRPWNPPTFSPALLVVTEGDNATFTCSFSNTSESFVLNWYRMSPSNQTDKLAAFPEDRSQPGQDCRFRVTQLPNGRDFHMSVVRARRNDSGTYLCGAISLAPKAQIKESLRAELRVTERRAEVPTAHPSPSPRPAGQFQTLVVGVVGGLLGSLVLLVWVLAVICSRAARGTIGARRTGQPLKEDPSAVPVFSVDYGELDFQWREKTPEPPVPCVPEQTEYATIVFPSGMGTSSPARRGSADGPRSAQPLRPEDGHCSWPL

human PD-1 [4] = molecular target: T3, human PD-1; assay: cell-based or functional assay; remark: listed apart in the source
[5] = molecular target: T1, human IL-2Rβ/γ receptor heterodimer …; assay: SPR Biacore 8K; affinity for human IL-2Rβ/γ against A-PC
[6] = molecular target: T4, human IL-2Rα receptor protein (Sino Biological, 10165-H08H) (human, UniProt P01589 22-213); assay: SPR Biacore 8K, fusion protein captured by anti-human IgG (Fc), IL-2Rα as analyte
T4 construct: also called CD25
T4 sequence (looked up): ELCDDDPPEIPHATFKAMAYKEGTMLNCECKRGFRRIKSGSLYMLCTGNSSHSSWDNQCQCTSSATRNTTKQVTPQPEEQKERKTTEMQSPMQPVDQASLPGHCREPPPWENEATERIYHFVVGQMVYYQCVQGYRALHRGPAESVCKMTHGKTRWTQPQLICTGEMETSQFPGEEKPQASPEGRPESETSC

B1: A-D20A (Fc fusion)
chain (part 1 of 2): EVQLVESGGGLVQPGGSLRLSCAASGLTFSDYSMSWYRQAPGKGRELVAIISGSGVITHYVDSVKGRFTISRDNAKNTLYLQMRSLRAEDTAVYYCRAVSDWEDYWGQGTQVTVSS
chain (part 2 of 2): GGGGSGGGGSGGGGSAPASSSTKKTQLQLEHLLLALQMILQGISNYKNPKLTRMLTAKFYMPKKATELKHLQCLEEELKPLEEVLQGAQSKNFHLRPRDLISNINVIVLELKGSETTFMCEYADETATIVEFLNRWITFAQSIISTLT
chain: EVQLVESGGGLVQPGGSLRLSCAASGLTFSDYSMSWYRQAPGKGRELVAIISGSGVITHYVDSVKGRFTISRDNAKNTLYLQMRSLRAEDTAVYYCRAVSDWEDYWGQGTQVTVSS
notes: also called PD-1-IL-2v (D20A); not shown: IgG1 hinge (C220S) + Fc Knob chain (L234A, L235A, S354C, T366W, EU); D356/L358 or E356/M358 ver; IgG1 hinge (C220S) + Fc Hole chain (L234A, L235A, Y349C, T366S, L368A, Y407V; may have H435R, Y436F; EU)
[1]
  Kd: 16 nM
  koff: 0.000681 s⁻¹
  kon: 42700 M⁻¹ s⁻¹
[2]
  Kd: 18.5 nM
  koff: 0.00168 s⁻¹
  kon: 90600 M⁻¹ s⁻¹
IL-2Rβ/γ on M07e cells
  M07e cell proliferation activity (%) at 0.46 nM: -3%
  M07e cell proliferation activity (%) at 1.4 nM: -2.6%
  M07e cell proliferation activity (%) at 4.1 nM: -1.6%
  M07e cell proliferation activity (%) at 12 nM: -3%
  M07e cell proliferation activity (%) at 37 nM: -3.7%
  M07e cell proliferation activity (%) at 111 nM: -2.4%
  M07e cell proliferation activity (%) at 333 nM: -1.9%
  M07e cell proliferation activity (%) at 1000 nM: 0.6%
Human PD-1 [3]
  M07e-hPD-1 cell proliferation activity (%) at 0.0001 nM: 2.3%
  M07e-hPD-1 cell proliferation activity (%) at 0.001 nM: 2.9%
  M07e-hPD-1 cell proliferation activity (%) at 0.01 nM: 11.4%
  M07e-hPD-1 cell proliferation activity (%) at 0.1 nM: 24.2%
  M07e-hPD-1 cell proliferation activity (%) at 1 nM: 28.5%
  M07e-hPD-1 cell proliferation activity (%) at 10 nM: 30.2%
  M07e-hPD-1 cell proliferation activity (%) at 100 nM: 32%
  M07e-hPD-1 cell proliferation activity (%) at 1000 nM: 39.2%
Human PD-1 [4]
  M07e-hPD-1 cell proliferation ratio (%) at 0.0001 nM: 0.6%
  M07e-hPD-1 cell proliferation ratio (%) at 0.001 nM: -0.3%
  M07e-hPD-1 cell proliferation ratio (%) at 0.01 nM: 2.6%
  M07e-hPD-1 cell proliferation ratio (%) at 0.1 nM: 8.4%
  M07e-hPD-1 cell proliferation ratio (%) at 1 nM: 10.8%
  M07e-hPD-1 cell proliferation ratio (%) at 10 nM: 10.8%
  M07e-hPD-1 cell proliferation ratio (%) at 100 nM: 13.5%
  M07e-hPD-1 cell proliferation ratio (%) at 1000 nM: 15.4%
[5]
  fold lower affinity than A-PC: ~63 fold
[6]
  binding result: no binding
